Common to all, as to test: BLI (Octet)
Background: In BLI a coated tip is dipped into the sample, and binding shifts an interference pattern.

Test [1] deals with Human CD47 (human) (UniProt Q08722).
For test [2], the target named is Rat CD47 (rat) (UniProt P97829).
Test [3] addresses Cyno CD47 (Cyno monkey).

Sequence of Rat CD47 (rat) (P97829 19-140): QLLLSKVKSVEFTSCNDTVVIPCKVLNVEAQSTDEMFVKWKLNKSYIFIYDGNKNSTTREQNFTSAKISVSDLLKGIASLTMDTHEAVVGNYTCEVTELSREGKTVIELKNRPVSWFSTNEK
Sequence of Human CD47 (human) (Q08722 19-139): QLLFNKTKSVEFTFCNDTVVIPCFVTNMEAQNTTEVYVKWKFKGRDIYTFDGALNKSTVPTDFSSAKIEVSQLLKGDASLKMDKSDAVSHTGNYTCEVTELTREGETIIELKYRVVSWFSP

On to Anti-human CD47 (clone MIAP410), for which the Kd in test [1] was 0.216 nM; in test [2], 1.16 nM; in test [3] it was 0.289 nM.

A word on the Kd: it is the free concentration of one partner at which half of the binding sites on the other are occupied at equilibrium, for simple one-to-one binding.
